Experimental data reported in patent publication US20140212427A1 (University of Pennsylvania, published 2014).

Legend:
human properdin = human properdin (human, UniProt P27918 28-469); experiment: cell-based or functional assay
[1] = target: T1, human properdin deletion mutant dTSR5+6 (human, UniProt P27918 28-313); experiment: ELISA with CHO cell lysates of properdin deletion mutants (FIG. 6)
T1 construct: Human properdin with TSR5 and TSR6 deleted; CHO cell lysate; also called TSR0-4; TSR5+6 deletion mutant
T1 sequence (P27918 other isoform, or with tags, fused parts or gaps mutant limits assumed): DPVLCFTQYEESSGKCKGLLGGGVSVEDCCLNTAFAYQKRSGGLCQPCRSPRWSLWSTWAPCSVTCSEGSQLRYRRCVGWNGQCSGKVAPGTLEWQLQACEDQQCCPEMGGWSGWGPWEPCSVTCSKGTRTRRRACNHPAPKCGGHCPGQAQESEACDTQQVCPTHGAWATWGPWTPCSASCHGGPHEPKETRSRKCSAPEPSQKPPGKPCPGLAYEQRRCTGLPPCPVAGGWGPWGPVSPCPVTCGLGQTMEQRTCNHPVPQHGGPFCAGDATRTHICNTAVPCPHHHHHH
Description: (§1) However, because dTSR5 has undergone proteolytic degradation leading to possible TSR6 removal (FIG. 5), it is likely that the epitope for mAb 25 is located in TSR6. HuP refers to full length human properdin transfection which is used as a positive control. Con refers to untransfected CHO cell lysate which is used as a negative control for lack of binding. All mutant proteins contained a 6×His tag at the C-terminus.
(§2) (see FIG. 6). ELISA plates were coated with 50 μl of 2 μg/ml of the concerned mAb overnight at 4° C. The plates were washed 3× with PBS-T and then 25 μg (in 50 μl PBS containing 1% BSA) CHO cell lysate proteins were added to the wells and the plates were incubated for 1 hour at room temperature. The plates were washed 3× with PBS-T and then captured protein was detected by biotinylated goat anti-human properdin antibody and HRP-avidin system.

[2] = target: T2, human properdin mutant TSR0-4+½ TSR5 (human, UniProt P27918 28-345); experiment: sandwich ELISA with CHO cell lysates (FIG. 7)
T2 construct: Expressed in CHO cells, tested as lysate; expression confirmed by Western blot
T2 sequence (P27918 other isoform, or with tags, fused parts or gaps mutant limits assumed): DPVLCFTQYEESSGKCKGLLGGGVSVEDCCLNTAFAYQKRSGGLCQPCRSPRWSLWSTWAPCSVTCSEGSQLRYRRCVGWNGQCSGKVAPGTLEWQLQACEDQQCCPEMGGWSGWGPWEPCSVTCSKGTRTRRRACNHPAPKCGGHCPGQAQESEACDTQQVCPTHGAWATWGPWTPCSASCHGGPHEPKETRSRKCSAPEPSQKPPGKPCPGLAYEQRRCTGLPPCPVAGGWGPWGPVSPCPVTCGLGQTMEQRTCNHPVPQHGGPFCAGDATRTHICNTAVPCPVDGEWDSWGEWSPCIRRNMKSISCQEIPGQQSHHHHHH
Description: as §2
(§3) Three human properdin mutants comprising TSR0-4+¼ TSR5, TSR0-4+½ TSR5 or TSR0-4+¾ TSR5 were generated by conventional PCR. They were cloned into pCAGGS and expressed in CHO cells as described in Example 5. Protein expression was confirmed by Western analysis using goat anti-human properdin antibody. The blot was stripped and reprobed with a mouse anti-His tag antibody (Qiagen) to confirm that the C-terminal His Tag is present (no C-terminal proteolysis).

[3] = target: T3, full-length human properdin with the double mutations C62A and C78A (TSR6) (human, UniProt P27918 28-469); experiment: ELISA with homogenates of transfected CHO cells (FIG. 8B)
T3 construct: Whether this mutant carries a 6×His tag is not clear; Homogenate of transfected CHO cells; also called C62A and C78A double mutant
T3 sequence (P27918 28-469 C439A/C455A limits assumed): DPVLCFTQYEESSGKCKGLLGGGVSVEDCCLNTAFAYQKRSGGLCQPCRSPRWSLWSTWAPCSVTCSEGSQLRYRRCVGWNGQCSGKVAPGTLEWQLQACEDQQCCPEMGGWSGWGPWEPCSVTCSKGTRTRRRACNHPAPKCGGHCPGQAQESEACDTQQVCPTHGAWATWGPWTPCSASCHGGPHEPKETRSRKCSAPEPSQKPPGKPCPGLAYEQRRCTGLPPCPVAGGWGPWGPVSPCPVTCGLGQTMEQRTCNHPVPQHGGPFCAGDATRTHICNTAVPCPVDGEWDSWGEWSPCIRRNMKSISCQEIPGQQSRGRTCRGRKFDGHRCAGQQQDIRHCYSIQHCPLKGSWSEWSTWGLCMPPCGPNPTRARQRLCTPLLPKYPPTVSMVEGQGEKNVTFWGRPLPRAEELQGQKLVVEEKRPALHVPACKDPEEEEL

[4] = target: T4, human properdin mutant TSR0-5+¾ TSR6 (human, UniProt P27918 28-446); experiment: sandwich ELISA with CHO cell lysates (FIG. 8A)
T4 construct: Expressed in CHO cells, tested as lysate; expression confirmed by Western blot
T4 sequence (P27918 other isoform, or with tags, fused parts or gaps mutant limits assumed): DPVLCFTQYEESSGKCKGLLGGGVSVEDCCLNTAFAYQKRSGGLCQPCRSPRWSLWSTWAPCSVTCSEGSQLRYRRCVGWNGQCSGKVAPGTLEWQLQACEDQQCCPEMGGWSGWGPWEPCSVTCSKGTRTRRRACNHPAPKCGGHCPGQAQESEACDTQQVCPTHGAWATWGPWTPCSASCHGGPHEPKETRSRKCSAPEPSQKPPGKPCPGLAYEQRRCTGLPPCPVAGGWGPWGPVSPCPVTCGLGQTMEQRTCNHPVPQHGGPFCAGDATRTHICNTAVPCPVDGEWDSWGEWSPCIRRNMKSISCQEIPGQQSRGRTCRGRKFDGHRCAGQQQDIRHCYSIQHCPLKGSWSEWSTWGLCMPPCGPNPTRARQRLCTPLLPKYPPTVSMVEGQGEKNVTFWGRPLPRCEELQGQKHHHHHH
Description: as §2
as §3, with “TSR0-5+¼ TSR6, TSR0-5+½ TSR6” for “TSR0-4+¼ TSR5, TSR0-4+½ TSR5”, “TSR0-5+¾ TSR6” for “TSR0-4+¾ TSR5”, “proteolysis). […] These are cysteine 62 (C62) and cysteine 78 (C78) of TSR6.” for “proteolysis).”

[5] = target: T5, human properdin deletion mutant dTSR6 (human, UniProt P27918 28-377); experiment: ELISA with CHO cell lysates of properdin deletion mutants (FIG. 6)
T5 construct: CHO cell lysate; also called TSR0-5
T5 sequence (P27918 other isoform, or with tags, fused parts or gaps mutant limits assumed): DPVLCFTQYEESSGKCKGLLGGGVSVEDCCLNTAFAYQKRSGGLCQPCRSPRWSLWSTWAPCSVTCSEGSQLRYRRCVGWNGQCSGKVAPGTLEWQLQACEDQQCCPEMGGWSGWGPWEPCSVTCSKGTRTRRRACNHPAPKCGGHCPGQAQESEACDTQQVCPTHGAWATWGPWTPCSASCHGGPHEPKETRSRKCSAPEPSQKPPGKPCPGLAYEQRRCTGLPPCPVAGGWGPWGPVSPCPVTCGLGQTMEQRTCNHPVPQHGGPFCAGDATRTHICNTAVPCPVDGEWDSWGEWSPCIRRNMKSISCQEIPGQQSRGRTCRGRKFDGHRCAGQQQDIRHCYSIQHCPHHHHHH
Description: as §1, §2

Sequence of human properdin (P27918 28-469): as the sequence (P27918 28-469 C439A/C455A limits assumed) above, with A412C, A428C counted along it

| Binder | concentration sufficient to inhibit LPS-induced human AP complement activation in 50% NHS (C3 deposition) (human properdin) | acidified autologous serum lysis of PNH patient RBCs (Ham's test) (human properdin) | binding result [1] | binding result [2] | LPS-induced AP complement activation in 50% normal human serum (C3 deposition, OD450) (human properdin) | lysis of human RBCs by 50% human serum with fH 19-20 and anti-DAF mAb (human properdin) | binding result [3] | binding result [4] | binding result [5] |
| --- | --- | --- | --- | --- | --- | --- | --- | --- | --- |
| humanized 19.1 mAb with heavy chain variable region humanized 19.1 VH-3-66-04 (antibody, human IgG4 S228P, kappa, V domains shown) VH: EVQLVESGGGLVQPGGSLRLSCAASGFSLTTYGVHWVRQAPGKGLEWVSVIWSGGDTDYNASFISRFTISRDNSKNTLYLQMNSLRAEDTAVYYCARNKDYYTNYDFTMDYWGQGTTVTVSS VL: not shown | 10 µg/mL | – | – | – | – | – | – | – | – |
| humanized 19.1 mAb with heavy chain variable region humanized 19.1 VH-4-59-01 (antibody, human IgG4 S228P, kappa, V domains shown) VH: QVQLQESGPGLVKPSETLSLTCTVSGFSLTTYGVHWIRQPPGKGLEWIGVIWSGGDTDYNASFISRVTISVDTSKNQFSLKLSSVTAADTAVYYCARNKDYYTNYDFTMDYWGQGTTVTVSS VL: not shown | 10 µg/mL | 20 µg/ml | – | – | – | – | – | – | – |
| mAb 19.1 (antibody, V domains shown, Mouse hybridoma monoclonal antibody from properdin knockout mice immunised with human properdin; kappa light chain) VH: QVQLKQSGPGLVQPSQSLSISCTVSGFSLTTYGVHWVRQSPGKGLEWLGVIWSGGDTDYNASFISRLRINKDTSKSQVFFKMNSLQADDTAYYCARNKDYYTNYDFTMDYWGQGTSVTVSS VL: NIMMTQSPSSLAVSAGEKVTMSCKSSQSVLYSSNQKNFLAWYQQKPGQSPKLLIYWASTRESGVPDRFTGSGSGTDFILTINSVQVEDQAVYYCHQYLSSYTFGGGTKLEIK | 5 µg/mL | ≥ 8 µg/ml | no binding | no binding | 5 µg/mL | 5 µg/mL | – | – | – |
| mAb 22.1 (antibody, V domains shown) VH: QVQLKQSGPGLVQPSQSLSITCTVSGFSLTSYGVHWVRQSPGKGLEWLGVIWSGGSTDYNAAFISRLSISKDTSKSQVFFKMNSLQPDDTAIYYCARNKDFYSNYDYTMDYWGQGTSVTVSS VL: NIMMTQSPSFLAVSAGEKVTLSCKSSQSVLYSSNQKNFLAWYQQKPGQSPKLLIYWASTRESGVPDRFTGSGSGTDFTLTISSVQAEDLAVYYCHQYLSSYTFGGGTKLEIK | – | – | – | – | 5 µg/mL | 5 µg/mL | – | – | – |
| chimeric 19.1 mAb (antibody, human IgG4 S228P, kappa, V domains shown) VH: QVQLKQSGPGLVQPSQSLSISCTVSGFSLTTYGVHWVRQSPGKGLEWLGVIWSGGDTDYNASFISRLRINKDTSKSQVFFKMNSLQADDTAYYCARNKDYYTNYDFTMDYWGQGTSVTVSS VL: NIMMTQSPSSLAVSAGEKVTMSCKSSQSVLYSSNQKNFLAWYQQKPGQSPKLLIYWASTRESGVPDRFTGSGSGTDFILTINSVQVEDQAVYYCHQYLSSYTFGGGTKLEIKT | 10 µg/mL | – | – | – | – | – | – | – | – |
| mAb 25 (antibody, V domains shown, Mouse hybridoma monoclonal antibody; also called anti-properdin mAb 25) VH: QVQLLQSGAEVMKPGASVTLSCKAIGYTFIDYWIEWIKQRPGHGLEWIGEIFPGSGTINHNEKFKDKASFSAHSSSNTAYMQLSRLTSEDSAIYYCAREGLDYWGQGTTLTVSS VL: QIVLTQSPAIMSASPGERVTMTCSASSSVSYIYWYQQKSGTSPKRWIFDTSTLASGVPTRFSGSGSGTSYSLTISSMETEDAATYYCQQWSRNPFTFGSGTKLEIK | – | ≥ 8 µg/ml | no binding | – | 5 µg/mL | 5 µg/mL | no binding | no binding | no binding |
